Paper PMC3045617

Key:
Experiment in all cases: EMSA
[1] = target: T1, GlrR-His10 (E. coli) (Escherichia coli) (UniProt P0AFU4)
T1 sequence: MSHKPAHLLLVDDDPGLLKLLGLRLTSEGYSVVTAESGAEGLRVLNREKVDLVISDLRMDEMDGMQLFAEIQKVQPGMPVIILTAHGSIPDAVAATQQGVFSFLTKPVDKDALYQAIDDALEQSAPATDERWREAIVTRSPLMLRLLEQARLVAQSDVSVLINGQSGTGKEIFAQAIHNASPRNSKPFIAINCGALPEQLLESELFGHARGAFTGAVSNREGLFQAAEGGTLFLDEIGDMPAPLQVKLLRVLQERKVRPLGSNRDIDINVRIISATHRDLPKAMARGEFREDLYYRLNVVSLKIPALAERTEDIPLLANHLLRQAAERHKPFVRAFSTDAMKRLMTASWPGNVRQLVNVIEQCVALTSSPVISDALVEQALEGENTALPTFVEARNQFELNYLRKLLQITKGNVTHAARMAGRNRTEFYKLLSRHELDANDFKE

[2] = tested on: GlrR-His10 (E. coli) (Escherichia coli)
[3] = tested on: GlrR-His10 (Y. pseudotuberculosis) (Yersinia pseudotuberculosis), ORF:f09f451a
IHF = IHF (UniProt P0A6X7+P0A6Y1)
[4] = tested on: GlrR-His10 (Y. pseudotuberculosis) (Yersinia pseudotuberculosis)

Chain of UniProt P0A6X7 (P0A6X7 2-99, chain 1 of 2): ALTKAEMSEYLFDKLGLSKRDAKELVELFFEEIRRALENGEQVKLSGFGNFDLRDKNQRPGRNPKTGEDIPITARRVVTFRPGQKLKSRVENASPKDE
Chain of UniProt P0A6X7 (P0A6Y1 whole entry, chain 2 of 2): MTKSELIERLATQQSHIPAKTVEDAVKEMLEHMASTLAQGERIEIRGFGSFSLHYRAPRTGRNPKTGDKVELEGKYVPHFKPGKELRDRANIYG

In the case of “ATTAATGCAGCTGGCACGACAGGTTTCCCGACTGGAAAGCGGGCAGTGAGCGCAACGCAATTAATGTGAGTTAGCTCACTCATTAGGCACCCCAGGCTTTACACTTTATGCTTCCGGCTCGTATGTTGTGTGGAATTGTGAGCGGATAACAATTTCACACAGGAAACAGCTATGACCATGATTACGGATTCACTGGCCGT (double strand) [lacZ promoter 200 bp control]”, the binding [1] is reported as “no binding”.
In the case of “CGTCTCTAGACATAAGAAGGTGAATGAGCCACTGGTTACCATTATGCAGTAATTGTGCCAACATTCAAAAGAATTTGTTAACATAATGATAGATATGAAAAATATCGTTATTCATGCTAAAAATGGCTCTGTCTGTTTTTTGCCCTTTCTGTCGCCAATCAGCAACACCTGCAACACCTAAAAATAAAACAATTTAAAATCAAATAGTTAAATGTCTCTTTTTGGCGACAACCTATCCCCCACTCATGTCGGGATTTCCCGACACTTTAATCTTGGTCGACGCGTGC (double strand) [S. typhimurium glmY promoter (-242 to +22)]”, the Kd [1] is reported as 230 nM.
Work on E. coli glmY promoter (-238 to +22) yielded a Kd [2] of 360 nM.
For “GCACGCGTCGACGTGTTGCCATTATGATTTGTTGGCGATATCCCAGGCTTCATTTGTCGCTATTCGGTGACGAGTAATCTATTGATTTATAATCACTTTGTAAAAAGCATCCTGTTCTGTCTCCACCGGGCGACACGCTAAAACCTCGCCAGCGGCGGGGGGATGACAATCGCGTGAATTCTCTACGTTTTTTTAATGCCTGCGCCTGTTTTTTAGCGGTGCAAAGATGGCACGTTATGTGCAATAATGTACGGGTAGATGCTCATTCCATCTCTTATCTAGAGACG (double strand) [S. typhimurium glmZ promoter (-242 to +22)]”, the Kd [1] was 370 nM.
“GCTCTAGAATAAGTCGGTGAATGAGCCACTGGTTACTATTATGCAGTAACTGTGCCAATAAAGAAAATAGTTTGGTAACGTACTGATTATACGTTGCTTTGAGGGGTTTATGTCTCCTCCGCTGTTTGAATGTAAATCAGCCACTGTGTCGCTAAAAAGAGACAACTTAAGATAAACTTATTAGATAATATTAAAATCAATGAGTTAAGTGTCGCCAGAAAGCGACACGGCAAACCACCCATTGTCGTGATTTACAGACACAAAAAAGGTCGACGCGTGC (double strand) [E. coli glmY promoter (-238 to +22)]” was tested, and the Kd [1] was 360 nM, the binding [1] was “binds” and the binding [3] was “binds”. For the same substance, the binding (IHF) was “binds”.
For “S. typhimurium glmY promoter (-242 to +22)”, the Kd [2] was 230 nM.
“S. typhimurium glmZ promoter (-242 to +22)” showed a Kd [2] of 370 nM.
For “Y. pseudotuberculosis glmY promoter (-257 to +22)”, the Kd [2] was 290 nM.
Work on “Y. pseudotuberculosis glmZ promoter (-303 to +22)” yielded a Kd [2] of 370 nM and a binding signal (fold higher protein than E. coli GlrR) [4] of 4.
